Reference: the supplement of paper PMC7877785
± gives the uncertainty stated by the source.

Assay: self-splicing fitness, log relative to wild type (ln ratio); higher = more splicing; Tetrahymena group I intron in knt gene, E. coli kanamycin selection, DiMSum; sequences stand for … in CUCUCU…GGAGGGAAAAGUUAUCAGGCAUGCACCUGGUAGCUAGUCUUUAAACCAAUAGAUUGCAUCGGUUUAAAAGGCAAGACCGUCAAAUUGCGGGAAAGGGGUCAACAGCCGUUCAGUACCAAGUCUCAGGGGAAACUUUGAGAUGGCCUUGCAAAGGGUAUGGUAAUAAGCUGACGGACAUGGUCCUAACCACGCAGCCAAGUCCUAAGUCAACAGAUCUUCUGUUGAUAUGGAUGCAGUUCACAGACUAAAUGUCGGUCGGGGAAGAUGUAUUCUUCUCAUAAGAUAUAGUCGGACCUCUCCUUAAUGGGAGCUAGCGGAUGAAGUGAUGCAACACUGGAGCCGCUGGGAACUAAUUUGUAUGCGAAAGUAUAUUGAUUAGUUUUGGAGUACUCGUGGUCG
Method in brief: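 Colonies from six replicate transformations of E. coli BL21(DE3) were pooled and amplicon-sequenced on an Illumina HiSeq 2500. The library placed an intron with all eight P1ex-region nucleotides randomised inside the knt kanamycin-resistance gene on pET-22b(+), and cells grew overnight at 37°C or 30°C on LB agar with or without 25 μg/mL kanamycin (plus 100 μg/mL carbenicillin, 50 μM IPTG, 0.2% rhamnose). Fitness is the DiMSum error-weighted combination of wild-type-normalised replicate fold changes, kanamycin versus none.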

Sequence | self-splicing fitness (ln) (30 °C) | self-splicing fitness (ln) (37 °C)
ACGCAGCAAUAUUACGGGGC | -3.8 ± 0.24 | -3.15 ± 0.28
ACGCAGCAAUAUUACGGUCG | -0.525 ± 0.055 | -0.355 ± 0.072
ACGCAGCAAUAUUACGUCAA | -3.09 ± 0.2 | -2.57 ± 0.15
ACGCAGCAAUAUUACGUCAG | -2.75 ± 0.12 | -3 ± 0.19
ACGCAGCAAUAUUACGUCUC | -3.88 ± 0.13 | -0.606 ± 0.084
ACGGAGCAAUAUUACGACCU | -1.69 ± 0.2 | -1.34 ± 0.25
ACGGAGCAAUAUUACGACGC | -1.26 ± 0.15 | -1.11 ± 0.17
ACGGAGCAAUAUUACGAGAC | -0.64 ± 0.18 | 
ACGGAGCAAUAUUACGAUCU | -2.61 ± 0.14 | -1.37 ± 0.11
ACGGAGCAAUAUUACGAUGC | -3.69 ± 0.43 | -1.74 ± 0.29
ACGGAGCAAUAUUACGCAUU | -3.43 ± 0.43 | -2.85 ± 0.34
ACGGAGCAAUAUUACGCGUU |  | -1.9 ± 0.21
ACGGAGCAAUAUUACGCUCA | -1.04 ± 0.19 | -0.0662 ± 0.3
ACGGAGCAAUAUUACGCUGG | -3.77 ± 0.29 | -1.2 ± 0.18
ACGGAGCAAUAUUACGGAAU | -1.57 ± 0.39 | -2.5 ± 0.45
ACGGAGCAAUAUUACGGAUA | -3.27 ± 0.33 | -2.61 ± 0.42
ACGGAGCAAUAUUACGGAUG | -2.66 ± 0.31 | -1.17 ± 0.28
ACGGAGCAAUAUUACGGCCU | -2.12 ± 0.17 | -1.2 ± 0.21
ACGGAGCAAUAUUACGGUAA | -2.95 ± 0.49 | -3.1 ± 0.28
ACGGAGCAAUAUUACGGUCA | -3.14 ± 0.3 | -1.35 ± 0.18
ACGGAGCAAUAUUACGGUGU | -3.78 ± 0.2 | -2.35 ± 0.16
ACGGAGCAAUAUUACGUAAA |  | -1.27 ± 0.35
ACGGAGCAAUAUUACGUAGA | -4.18 ± 0.31 | -2.41 ± 0.24
ACGGAGCAAUAUUACGUAGG | -3.48 ± 0.26 | 
ACGGAGCAAUAUUACGUAUA | -2.42 ± 0.18 | -1.86 ± 0.25
ACGGAGCAAUAUUACGUGCG | -2.63 ± 0.17 | -1.79 ± 0.18

Sequence | self-splicing fitness (ln) (30 °C) | self-splicing fitness (ln) (37 °C)
ACGGAGCAAUAUUACGUUGG | -3.62 ± 0.23 | -2.05 ± 0.17
ACGUAGCAAUAUUACGAAAU | -2.28 ± 0.19 | -1.3 ± 0.26
ACGUAGCAAUAUUACGAACC | -1.44 ± 0.11 | -0.279 ± 0.15
ACGUAGCAAUAUUACGACGA | 0.179 ± 0.11 | -0.0557 ± 0.12
ACGUAGCAAUAUUACGAGAG | -2.93 ± 0.14 | -2.97 ± 0.23
ACGUAGCAAUAUUACGAGGA | -2.78 ± 0.33 | -2.75 ± 0.38
ACGUAGCAAUAUUACGCAAC | -2.74 ± 0.31 | -2.17 ± 0.35
ACGUAGCAAUAUUACGCACU | -1.46 ± 0.18 | -0.549 ± 0.23
ACGUAGCAAUAUUACGCCCC | -1.38 ± 0.27 | -1.28 ± 0.29
ACGUAGCAAUAUUACGCCUU | -1.42 ± 0.064 | -0.00228 ± 0.076
ACGUAGCAAUAUUACGCGCG | -1.28 ± 0.15 | -0.103 ± 0.18
ACGUAGCAAUAUUACGCUCA | -0.72 ± 0.12 | 0.189 ± 0.11
ACGUAGCAAUAUUACGGACA | -1.1 ± 0.083 | -0.739 ± 0.092
ACGUAGCAAUAUUACGGCCC | -0.341 ± 0.15 | 0.0459 ± 0.25
ACGUAGCAAUAUUACGGGAA | -1.95 ± 0.2 | -3.19 ± 0.37
ACGUAGCAAUAUUACGGGGG | -3.84 ± 0.2 | -2.44 ± 0.16
ACGUAGCAAUAUUACGGGUA | -1.29 ± 0.13 | -0.928 ± 0.12
ACGUAGCAAUAUUACGGGUU | -3.54 ± 0.2 | -2.07 ± 0.21
ACGUAGCAAUAUUACGGUUA | -0.772 ± 0.091 | -0.0368 ± 0.092
ACGUAGCAAUAUUACGUCAG | -3.39 ± 0.18 | -2.34 ± 0.2
ACGUAGCAAUAUUACGUGGG | -3.6 ± 0.16 | -3.07 ± 0.18
ACUAAGCAAUAUUACGACUU | -0.429 ± 0.093 | 0.924 ± 0.12
ACUAAGCAAUAUUACGAUUA | -0.928 ± 0.12 | -0.502 ± 0.1
ACUAAGCAAUAUUACGCCUA | -1.41 ± 0.13 | -0.734 ± 0.13
ACUAAGCAAUAUUACGCUCG | -0.345 ± 0.09 | -0.528 ± 0.11
ACUAAGCAAUAUUACGCUGA | -2.16 ± 0.17 | -1.31 ± 0.15

Sequence | self-splicing fitness (ln) (30 °C) | self-splicing fitness (ln) (37 °C)
ACUAAGCAAUAUUACGGAAA | -2.78 ± 0.37 | -1.7 ± 0.23
ACUAAGCAAUAUUACGGAUC | -2.21 ± 0.13 | -1.3 ± 0.14
ACUAAGCAAUAUUACGGCGC | -0.144 ± 0.099 | -0.477 ± 0.096
ACUAAGCAAUAUUACGGGAU | -2.17 ± 0.073 | -1.3 ± 0.097
ACUAAGCAAUAUUACGGUAU | -3.24 ± 0.17 | -1.73 ± 0.13
ACUAAGCAAUAUUACGUAAC | -4.39 ± 0.26 | -2.48 ± 0.24
ACUAAGCAAUAUUACGUUCG | -1.06 ± 0.074 | -0.408 ± 0.092
ACUAAGCAAUAUUACGUUUU | -2.55 ± 0.093 | -1.54 ± 0.1
ACUCAGCAAUAUUACGAAUA | -1.99 ± 0.14 | -0.941 ± 0.15
ACUCAGCAAUAUUACGACCA | -1.19 ± 0.084 | -0.64 ± 0.12
ACUCAGCAAUAUUACGACCC | -0.845 ± 0.19 | -2.22 ± 0.22
ACUCAGCAAUAUUACGACUC | -0.493 ± 0.054 | -0.0647 ± 0.068
ACUCAGCAAUAUUACGCAUC | -2.72 ± 0.15 | -1.48 ± 0.11
ACUCAGCAAUAUUACGCCAA | -1.12 ± 0.17 | -2.5 ± 0.21
ACUCAGCAAUAUUACGCGAC | -2.16 ± 0.14 | -1.85 ± 0.15
ACUCAGCAAUAUUACGCGCU | -1.41 ± 0.14 | -0.1 ± 0.16
ACUCAGCAAUAUUACGCGGC | -3.2 ± 0.25 | 
ACUCAGCAAUAUUACGCUCU | -0.15 ± 0.067 | 0.559 ± 0.094
ACUCAGCAAUAUUACGCUUA | -1.14 ± 0.14 | -0.0124 ± 0.12
ACUCAGCAAUAUUACGGCAA | -1.24 ± 0.094 | -0.795 ± 0.099
ACUCAGCAAUAUUACGGCCC | -1.32 ± 0.15 | -0.343 ± 0.19
ACUCAGCAAUAUUACGGCCU | -0.0739 ± 0.079 | -0.0329 ± 0.099
ACUCAGCAAUAUUACGGCUA | -0.553 ± 0.089 | 0.149 ± 0.093
ACUCAGCAAUAUUACGGGCU | -0.98 ± 0.067 | -0.954 ± 0.095
